Experimental data published in the domain aggregation screens of Martell et al. (2025).

Assay: soluble fraction after stress (log2 fold change); higher = more stays soluble; pooled small domains, quantitative proteomics
Details: stress: pH 4
Procedure, shortened: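 After pH 4 stress, pooled custom libraries of small protein domains were quantified with high-throughput quantitative proteomics. Aggregation propensity is taken from the fold change in each domain's soluble amount following the acid stress. The scale is log2, where higher values mean more stayed soluble.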

| Sequence | soluble fraction (log2) |
| --- | --- |
| HMFDPAKQMQRIRKYAGMNRKEFSEWLNIPYRTMTDWELGNRTMPVYLLELIVYKVNHEIANA | -0.349 |
| HMEKVTAPMPGVINSIVKNVGDTVKRGDVVLILEAMKMENEIVAPKEGKIASINVAKGASVNAGDVLFSI | 0.197 |
| HMRSFGRLRRRDSGRWEAAYVGPDARLYRAPATFEAKDDAIAWLSAERRMIELDTWIKPHDRASR | -0.000443 |
| HMSLPDREVVLETSSDSYYHFKTDHFQRQITYSAVRNAPVRLVTISAERAFEVISLNRRGERPEHLE | -1.77 |
| HMSEISAEAGKRIRYFRKSRSMTLEELAAVIHKSKATLSKYETGEISIDLDTLYDLAVALQVRAEQLLPAS | -0.764 |
| HMTAYENSIPLNWVIQKGDAKGLPLSANTARLLIDIVGIDLMDLDHELEKISLYLSGESITEEMIKEHIRG | -1.01 |
| HMNKTEIISILEKIVLPTQIRNINIFGSEVIIDLNIDNPSLHAKKKLEKSIINSFDKNHKIIINFNVE | -0.514 |
| HMFADLNPDENYGQVYIRTNTIDNLYQTLLDNKTRIHPNGLLELKPWGQKEFSILDPDKNLLTFGES | -0.317 |
| HMTPVIINESGGDQDTRIEGLNDNNLLYVDASTDRVGVGVATPTQKLDVNGDVAISGGSLYLSQ | -0.0183 |
| HMGKIFSELTPREIEVVRLIADGLSNQQIAEELFLSNGTVRNHISTILEKTGLEHRTQIAVMWLR | -0.742 |
| HMVKPQANTIYKEYIKYRANLQNKNEFLSFSEYAKQKHNLEQMSEIMVDANLKEEMLETLKEMS | 0.0548 |
| HMERQILFTKEDLIEFGLSGGTDSRKRRDVLGHILGIGYSNSKQFLNRLNNFGVTREEFLSAIERIG | -0.454 |
| HMGIMNFDTWLKSLPGTPTPTIAAKKSGLAAPTLLRHVERGYSTADNVIAIAKAYGVSPIDALVDNGML | -0.201 |
| HMKIATIELVKEAVKSKLGKFTKRDIMELVPSVGKTTIENMLKQLIGEGYIERHGKGRATFYVK | 0.158 |
| HMRRADRLLQLIQILRRHRRPVTGDVMARELEVSLRTVYRDIATLTIEGVPIRGEAGVGYVLGEGY | 0.211 |
| HMLQVRRILQLLADGYSKRQISQQTAVSRNTIDSYEDRFHLTGKSYQELLSMEDGELSGIVYP | 0.321 |
| HMTEEELLERLDAVITEYKGKPGALIPVLQLAQGIFGYLPEVALKHIARQLDKPYSEVAGVVSFYSFFTT | -0.048 |
| HMQKPWFYESSGQRKGGFSEQEMVGLITDGEITHGAIVWRNGLSDWTKLEQTELAAHLDKTA | -1.06 |
| HMEQVKFFDAKVITTPPNRLKTRYTPAGNLRPEADWLQSGAIVPVYETSGAGWYRIGYQTWASAEWMQRLD | 0.166 |

| Sequence | soluble fraction (log2) |
| --- | --- |
| HMTASTLSYSKFNEQVVQNQVRKVTFQGEQVKGELISGQTFTTTVPANDTTLWPMLKAHNVDTAVTAA | 0.0376 |
| HMSRQREWIYDYIQSHPDRHMSVEEIYEGLKAENREVSVATVYRNLKILQDENRIASLMLESGKQVFDK | -0.0969 |
| HMGNLIIFYDEGIGSGPLMKAVNDSGVSLVYEYKNLHGIAIRPSAKTNIQDAIAYFQKVNGVLSVEQ | -0.65 |
| HMTPEGAYTVSEIVKVINSFADEYKVPFTMHVSGYKYEEIAQQLGLPIGTVKSRIFFARKRLQELLN | -1.03 |
| HMPIRVGDAFESLAGVFPDEYNKALRKSTKKPVFFVPVKVEAGSGALRQKGKITFIVKDGRIDAIQIAL | -0.514 |
| HMHGSSVEIPNIYGLPASEAVQLLDKADLRYEVIDSVYTTEVPKGAVYDLSPKAGSRVKAGRIIFLTLNA | -0.075 |
| HMSSWEVLAEPIQTVMRRYGVPGAYEKLKEVTRGKSLTAEALHALIRSLDIPQADKERLLALTPAAWA | -0.393 |
| HMDNNNQAAFMGALNSLKEYAKVNGNIVTKQDVESYFKDLGLDDSKYQMITGYLLANDITVKG | -0.0847 |
| HMEEEEITIHIIGEVKYPGIVILKTGQRIIDAIDAAGGETEEADLNKINLAQLLSDGDKIYVPSINDN | -1.05 |
| HMLDDDAGMIQAILRKAPGHYLPLHDKSDPASIQAQLGISKAQFKRAVGTLMKQGLIRQVKGDGLYLTQ | 0.125 |
| HMTSLTDDELSVVMLVREREISFDEITSETGFDAARLNSVLTMLKIKGIIDETTGKHYRISGGA | -0.492 |
| HMENINIRNMGIRAVEAAIISLSPDQRTFTWGATNKKLVTVPYEENPYSALAAFFKTDDGIEIYDAIEKRL | -0.881 |
| HMRGHASVEIKRIVYKYKLTDQELAKITGMKASDFPIYHDHLQLILPKRYWARVLDALQNYEKEHES | ≥ 0.43 |
| HMRRIADVVPEQLTREEAEELLETLAEQGEIHEEQALLARYILEQSLQGVAPEVEPLIRAKLLAGILMVY | -1.67 |
| HMKNTVGEYRKLKSTTILYSNSDLTGTKYTYLPNTTVKILKNISSTVDYVYIKATNRYAYINIYAYT | 0.326 |
| HMEGLEKDDGGYYFEKDNGERARNEWVYVEYEGKGYWYYMTDYGYPLRSAITPDGYKVNSNGHWIDEGN | -1.12 |
| HMTQEQKQQISDQLRAYVEQKGSGNKAAASMNGVSSATISKVLAGKWETISEDMWRSIAAQTGH | -0.156 |
| HMERKMKNNISDQTTYDTDKILNFNGKGYLNGLVIPNNYQIKEEGYYVFRQVALDGREQILYFTIQDLS | -1.56 |
